Laboratory results: paper PMC9402603

How the values were obtained:
[1] = target: ChbG from Klebsiella pneumoniae (chitooligosaccharide deacetylase), wild type (Klebsiella pneumoniae) (UniProt A6T7U7); test: SEC-MALS; kpChbG 5 mg/mL, Superdex 200 10/300, SEC buffer (20 mM Tris-HCl pH 8.0, 150 mM NaCl), 0.4 mL/min, 25 °C, DAWN-Treos MALS detector
[2] = target: ChbG from Klebsiella pneumoniae (chitooligosaccharide deacetylase), wild type (Klebsiella pneumoniae) (UniProt A6T7U7); test: SEC; Superdex 200 Increase 10/300 GL (24 mL), 20 mM Tris-HCl pH 8.0, 150 mM NaCl, 0.4 mL/min, 4 °C; wild type elutes at approximately 15 mL, E23K/D224K at approximately 17 mL
[3] = target: kpChbG E23K/D224K double-mutant (Klebsiella pneumoniae) (UniProt A6T7U7)

**Q.** Which results are given for “ChbG from Klebsiella pneumoniae (chitooligosaccharide deacetylase), wild type (from UniProt A6T7U7 1-252) (enzyme)”?
**A.** stoichiometry N [1]: 2; stoichiometry N [2]: 2

**Q.** Which deacetylation of N,N’-diacetylchitobiose measured by ESI-MS, dimerization disrupting mutant E23K/D224K against wild type [3] does the source give for “kpChbG E23K/D224K double-mutant (from UniProt A6T7U7 1-252) (enzyme)” here?
**A.** > 50%
